Measured values published in article PMC6952060.

Target: Sulfolobus acidocaldarius soluble FlaF (sFlaF) (Sulfolobus acidocaldarius)
Assay: SEC

stoichiometry N: 2
Substance: Sulfolobus acidocaldarius soluble FlaF (sFlaF) (domain or fragment)
